In patent US20130209454A1:
Where two headings read alike, the source gives them in different places.

Assays:
Assay in all cases: cell-based or functional assay
[1] = biological target: HIV-1 strain ZM135M.PL10a envelope (gp120) (HIV-1)
[2] = biological target: HIV-1 Env of strain ZM109F.PB4 (HIV-1)
[3] = biological target: HIV-1 Env of strain Q23.17 (HIV-1)
[4] = biological target: HIV-1 Env of strain Du172.17 (HIV-1)
[5] = biological target: HIV-1 Env of strain Ce703010054_2A2 (HIV-1)
[6] = biological target: HIV-1 Env of strain ZM214M.PL15 (HIV-1)
[7] = biological target: HIV-1 strain 3718.v3.c11 envelope (gp120) (HIV-1)
[8] = biological target: HIV-1 Env of strain 0330.v4.c3 (HIV-1)
[9] = biological target: HIV-1 Env of strain CNE53 (HIV-1)
[10] = biological target: HIV-1 Env of strain 3817.v2.c59 (HIV-1)
[11] = biological target: HIV-1 strain CAAN5342.A2 envelope (gp120) (HIV-1)
[12] = biological target: HIV-1 Env of strain Ce0393_C3 (HIV-1)
[13] = biological target: HIV-1 Env of strain CNE20 (HIV-1)
[14] = biological target: HIV-1 strain T255-34 envelope (gp120) (HIV-1)
[15] = biological target: HIV-1 Env of strain CAAN5342.A2 (HIV-1)
[16] = biological target: HIV-1 Env of strain 6540.v4.cl (HIV-1)
[17] = biological target: HIV-1 Env of strain 231965.c01 (HIV-1)
[18] = biological target: HIV-1 Env of strain AC10.0.29 (HIV-1)
[19] = biological target: HIV-1 strain 6535.3 envelope (gp120) (HIV-1)
[20] = biological target: HIV-1 Env of strain 89-F1_2_25 (HIV-1)
[21] = biological target: HIV-1 strain CNE17 envelope (gp120) (HIV-1)
[22] = biological target: HIV-1 Env of strain ZM247v1(Rev-) (HIV-1)
[23] = biological target: HIV-1 Env of strain Q259.d2.17 (HIV-1)
[24] = biological target: HIV-1 strain 3415.v1.c1 envelope (gp120) (HIV-1)
[25] = biological target: HIV-1 Env of strain 62357_14_D3_4589 (HIV-1)
[26] = biological target: HIV-1 Env of strain X1254_c3 (HIV-1)
[27] = biological target: HIV-1 strain 231966.c02 envelope (gp120) (HIV-1)
[28] = biological target: HIV-1 Env of strain R2184.c04 (HIV-1)
[29] = biological target: HIV-1 strain ZM53M.PB12 envelope (gp120) (HIV-1)
[30] = biological target: HIV-1 strain ZM197M.PB7 envelope (gp120) (HIV-1)
[31] = biological target: HIV-1 strain C2101.c01 envelope (gp120) (HIV-1)
[32] = biological target: HIV-1 strain 1056_10_TA11_1826 envelope (gp120) (HIV-1)
[33] = biological target: HIV-1 Env of strain Q461.e2 (HIV-1)
[34] = biological target: HIV-1 Env of strain 3103.v3.c10 (HIV-1)
[35] = biological target: HIV-1 strain Ce2060_G9 envelope (gp120) (HIV-1)
[36] = biological target: HIV-1 strain HIV-16845-2.22 envelope (gp120) (HIV-1)
[37] = biological target: HIV-1 Env of strain Du422.1 (HIV-1)
[38] = biological target: HIV-1 Env of strain Ce1176_A3 (HIV-1)
[39] = biological target: HIV-1 Env of strain Q769.d22 (HIV-1)
[40] = biological target: HIV-1 Env of strain 6480.v4.c25 (HIV-1)
[41] = biological target: HIV-1 strain 3301.v1.c24 envelope (gp120) (HIV-1)
[42] = biological target: HIV-1 Env of strain ZM135M.PL10a (HIV-1)
[43] = biological target: HIV-1 Env of strain HIV-16845-2.22 (HIV-1)
[44] = biological target: HIV-1 strain C1080.c03 envelope (gp120) (HIV-1)
[45] = biological target: HIV-1 strain Q769.d22 envelope (gp120) (HIV-1)
[46] = biological target: HIV-1 Env of strain CAP45.2.00.G3 (HIV-1)
[47] = biological target: HIV-1 Env of strain AC10.0.29 (HIV-1); remark: listed apart in the source
[48] = biological target: HIV-1 Env of strain SC422661.8 (HIV-1)
[49] = biological target: HIV-1 Env of strain TRO.11 (HIV-1)
[50] = biological target: HIV-1 Env of strain CAP210.2.00.E8 (HIV-1)

B1: NIH45-46^G54Y IgG (antibody, name in Kabat numbering, V domains shown)
VH: QVRLSQSGGQMKKPGESMRLSCRASGYEFLNCPINWIRLAPGRRPEWMGWLKPRYGAVNYARKFQGRVTMTRDVYSDTAFLELRSLTSDDTAVYFCTRGKYCTARDYYNWDFEHWGRGAPVTVSS
VL: EIVLTQSPATLSLSPGETAIISCRTSQSGSLAWYQQRPGQAPRLVIYSGSTRAAGIPDRFSGSRWGADYNLSISNLESGDFGVYYCQQYEFFGQGTKVQVDI
**Q.** For B1, which neutralization IC80 [1] is on record?
**A.** 0.3 µg/mL

**Q.** And the neutralization IC50 [2]?
**A.** 0.026 µg/mL

**Q.** What about the neutralization IC50 [3] of the same binder?
**A.** 0.02 µg/mL

**Q.** What about the neutralization IC50 [4] of the same binder?
**A.** > 50 µg/mL

**Q.** And the neutralization IC50 [5]?
**A.** 0.022 µg/mL

**Q.** What about the neutralization IC50 [6] of the same binder?
**A.** 0.06 µg/mL

**Q.** And the neutralization IC80 [7]?
**A.** 3.85 µg/mL

**Q.** What about the neutralization IC50 [8] of the same binder?
**A.** 0.03 µg/mL

**Q.** And the neutralization IC50 [9]?
**A.** 0.006 µg/mL

**Q.** And the neutralization IC50 [10]?
**A.** > 50 µg/mL

**Q.** And the neutralization IC80 [11]?
**A.** 0.27 µg/mL

**Q.** What about the neutralization IC50 [12] of the same binder?
**A.** 0.036 µg/mL

**Q.** What about the neutralization IC50 [13] of the same binder?
**A.** 0.33 µg/mL

**Q.** What about the neutralization IC80 [14] of the same binder?
**A.** 0.174 µg/mL

**Q.** And the neutralization IC50 [15]?
**A.** 0.1 µg/mL

**Q.** What about the neutralization IC50 [16] of the same binder?
**A.** > 50 µg/mL

**Q.** What about the neutralization IC50 [17] of the same binder?
**A.** 0.025 µg/mL

**Q.** And the neutralization IC50 [18]?
**A.** 0.19 µg/mL

**Q.** What about the neutralization IC80 [19] of the same binder?
**A.** 0.24 µg/mL

**Q.** And the neutralization IC50 [20]?
**A.** > 50 µg/mL

**Q.** And the neutralization IC80 [21]?
**A.** 0.264 µg/mL

**Q.** What about the neutralization IC50 [22] of the same binder?
**A.** 0.42 µg/mL

**Q.** What about the neutralization IC50 [23] of the same binder?
**A.** 0.009 µg/mL

**Q.** And the neutralization IC80 [24]?
**A.** 0.037 µg/mL

**Q.** What about the neutralization IC50 [25] of the same binder?
**A.** 0.03 µg/mL

**Q.** What about the neutralization IC50 [26] of the same binder?
**A.** 0.013 µg/mL

**Q.** What about the neutralization IC80 [27] of the same binder?
**A.** 0.23 µg/mL

**Q.** And the neutralization IC50 [28]?
**A.** 0.015 µg/mL

**Q.** What about the neutralization IC80 [29] of the same binder?
**A.** 0.22 µg/mL

**Q.** And the neutralization IC80 [30]?
**A.** 0.21 µg/mL

**Q.** And the neutralization IC80 [31]?
**A.** 0.27 µg/mL

**Q.** And the neutralization IC80 [32]?
**A.** 0.189 µg/mL

**Q.** What about the neutralization IC50 [33] of the same binder?
**A.** 0.023 µg/mL

**Q.** And the neutralization IC50 [34]?
**A.** 0.3 µg/mL

**Q.** And the neutralization IC80 [35]?
**A.** 0.068 µg/mL

**Q.** And the neutralization IC80 [36]?
**A.** 2.75 µg/mL

**Q.** What about the neutralization IC50 [37] of the same binder?
**A.** > 50 µg/mL

**Q.** What about the neutralization IC50 [38] of the same binder?
**A.** 0.21 µg/mL

**Q.** And the neutralization IC50 [39]?
**A.** 0.007 µg/mL

**Q.** And the neutralization IC50 [40]?
**A.** 0.018 µg/mL

**Q.** What about the neutralization IC80 [41] of the same binder?
**A.** 0.014 µg/mL

**Q.** And the neutralization IC50 [42]?
**A.** 0.09 µg/mL

**Q.** And the neutralization IC50 [43]?
**A.** 0.59 µg/mL

**Q.** What about the neutralization IC80 [44] of the same binder?
**A.** 1.83 µg/mL

**Q.** And the neutralization IC80 [45]?
**A.** 0.024 µg/mL

**Q.** And the neutralization IC50 [46]?
**A.** 45 µg/mL

**Q.** And the neutralization IC50 [47]?
**A.** 0.4 µg/mL

**Q.** And the neutralization IC50 [48]?
**A.** 0.06 µg/mL

**Q.** And the neutralization IC50 [49]?
**A.** 0.1 µg/mL

**Q.** And the neutralization IC50 [50]?
**A.** > 50 µg/mL

B2: NIH45-46^G54W(HC), S28Y(LC) (antibody, V domains shown)
VH: QVRLSQSGGQMKKPGESMRLSCRASGYEFLNCPINWIRLAPGRRPEWMGWLKPRWGAVNYARKFQGRVTMTRDVYSDTAFLELRSLTSDDTAVYFCTRGKYCTARDYYNWDFEHWGRGAPVTVSS
VL: EIVLTQSPATLSLSPGETAIISCRTSQYGSLAWYQQRPGQAPRLVIYSGSTRAAGIPDRFSGSRWGADYNLSISNLESGDFGVYYCQQYEFFGQGTKVQVDI
**Q.** Which results are given for B2?
**A.** IC50, pseudovirus neutralization [2]: 0.013 µg/mL; IC50, pseudovirus neutralization [3]: 0.015 µg/mL; IC50, pseudovirus neutralization [4]: 0.015 µg/mL; IC50, pseudovirus neutralization [5]: 0.016 µg/mL; IC50, pseudovirus neutralization [6]: 0.036 µg/mL; IC50, pseudovirus neutralization [9]: 0.006 µg/mL; IC50, pseudovirus neutralization [10]: 5.14 µg/mL; IC50, pseudovirus neutralization [12]: 0.046 µg/mL; IC50, pseudovirus neutralization [13]: 0.001 µg/mL; IC50, pseudovirus neutralization [15]: 0.078 µg/mL; IC50, pseudovirus neutralization [17]: 0.001 µg/mL; IC50, pseudovirus neutralization [18]: 0.118 µg/mL; IC50, pseudovirus neutralization [20]: > 50 µg/mL; IC50, pseudovirus neutralization [22]: 0.001 µg/mL; IC50, pseudovirus neutralization [23]: 0.001 µg/mL; IC50, pseudovirus neutralization [25]: 0.015 µg/mL; IC50, pseudovirus neutralization [26]: 0.006 µg/mL; IC50, pseudovirus neutralization [28]: 0.008 µg/mL; IC50, pseudovirus neutralization [33]: 0.034 µg/mL; IC50, pseudovirus neutralization [34]: 0.181 µg/mL; IC50, pseudovirus neutralization [37]: 8.47 µg/mL; IC50, pseudovirus neutralization [38]: 0.172 µg/mL; IC50, pseudovirus neutralization [39]: 0.003 µg/mL; IC50, pseudovirus neutralization [40]: 0.016 µg/mL; IC50, pseudovirus neutralization [42]: 0.049 µg/mL; IC50, pseudovirus neutralization [43]: 0.38 µg/mL

B3: NIH45-46^G54W (antibody, V domains shown)
VH: QVRLSQSGGQMKKPGESMRLSCRASGYEFLNCPINWIRLAPGRRPEWMGWLKPRWGAVNYARKFQGRVTMTRDVYSDTAFLELRSLTSDDTAVYFCTRGKYCTARDYYNWDFEHWGRGAPVTVSS
VL: EIVLTQSPATLSLSPGETAIISCRTSQSGSLAWYQQRPGQAPRLVIYSGSTRAAGIPDRFSGSRWGADYNLSISNLESGDFGVYYCQQYEFFGQGTKVQVDI
**Q.** Which results are given for B3?
**A.** IC50, pseudovirus neutralization [2]: 0.002 µg/mL; IC50, pseudovirus neutralization [3]: 0.01 µg/mL; IC50, pseudovirus neutralization [4]: 3.65 µg/mL; IC50, pseudovirus neutralization [5]: 0.027 µg/mL; IC50, pseudovirus neutralization [6]: 0.03 µg/mL; IC50, pseudovirus neutralization [9]: 0.001 µg/mL; IC50, pseudovirus neutralization [10]: > 50 µg/mL; IC50, pseudovirus neutralization [12]: 0.013 µg/mL; IC50, pseudovirus neutralization [13]: 0.04 µg/mL; IC50, pseudovirus neutralization [15]: 0.07 µg/mL; IC50, pseudovirus neutralization [17]: 0.001 µg/mL; IC50, pseudovirus neutralization [18]: 0.13 µg/mL; IC50, pseudovirus neutralization [20]: > 50 µg/mL; IC50, pseudovirus neutralization [22]: 0.32 µg/mL; IC50, pseudovirus neutralization [23]: 0.001 µg/mL; IC50, pseudovirus neutralization [25]: 0.02 µg/mL; IC50, pseudovirus neutralization [26]: 0.002 µg/mL; IC50, pseudovirus neutralization [28]: 0.005 µg/mL; IC50, pseudovirus neutralization [33]: 0.009 µg/mL; IC50, pseudovirus neutralization [34]: 0.2 µg/mL; IC50, pseudovirus neutralization [37]: > 50 µg/mL; IC50, pseudovirus neutralization [38]: 0.16 µg/mL; IC50, pseudovirus neutralization [39]: 0.001 µg/mL; IC50, pseudovirus neutralization [40]: 0.004 µg/mL; IC50, pseudovirus neutralization [42]: 0.04 µg/mL; IC50, pseudovirus neutralization [43]: 0.45 µg/mL
